Measurements as given in the RNAGym collection of RNA variant scans (doi:10.1021/acssynbio.7b00057).

B1: Pistol ribozyme (parent)
chain: GGGUCGUUGUUCCAUAAUCGCGUGGAUAUGGCACGCAAGUUUCUACCGGGCACCGUAAAUGUCCGACUGGAGCCGUUCGGGCGGCUAUAAACAGACCUCAGGCCCGAAGCGUGGCGGCACCUGCCGCCGGUGGUAAAAAAGAUCGGAAGAGCACACGUCU

Variants of: B1
Experiment: aptazyme ON/OFF ratio, guanine; higher = stronger switching; co-transcriptional cleavage with and without guanine

Variant | aptazyme ON/OFF ratio
GGGUCGAGCUCUAAUAAUCGCGUGGAUAUGGCACGCAAGUUUCUACCGGGCACCGUAAAUGUCCGACUGGAGCCGUUCGGGCGGCUAUAAACAGACCUCAGGCCCGAAGCGUGGCGGCACCUGCCGCCGGUGGUAAAAAAGAUCGGAAGAGCACACGUCU | 1.41
GGGUCGAGCUCUUAUAAUCGCGUGGAUAUGGCACGCAAGUUUCUACCGGGCACCGUAAAUGUCCGACUGGAGCCGUUCGGGCGGCUAUAAACAGACCUCAGGCCCGAAGCGUGGCGGCACCUGCCGCCGGUGGUAAAAAAGAUCGGAAGAGCACACGUCU | 1.22
GGGUCGAGCUCUGAUAAUCGCGUGGAUAUGGCACGCAAGUUUCUACCGGGCACCGUAAAUGUCCGACUGGAGCCGUUCGGGCGGCUAUAAACAGACCUCAGGCCCGAAGCGUGGCGGCACCUGCCGCCGGUGGUAAAAAAGAUCGGAAGAGCACACGUCU | 1.38
GGGUCGAGCUAUUAUAAUCGCGUGGAUAUGGCACGCAAGUUUCUACCGGGCACCGUAAAUGUCCGACUGGAGCCGUUCGGGCGGCUAUAAACAGACCUCAGGCCCGAAGCGUGGCGGCACCUGCCGCCGGUGGUAAAAAAGAUCGGAAGAGCACACGUCU | 1.46
GGGUCGAGCUAUGAUAAUCGCGUGGAUAUGGCACGCAAGUUUCUACCGGGCACCGUAAAUGUCCGACUGGAGCCGUUCGGGCGGCUAUAAACAGACCUCAGGCCCGAAGCGUGGCGGCACCUGCCGCCGGUGGUAAAAAAGAUCGGAAGAGCACACGUCU | 1.37
GGGUCGAGCUAUAAUAAUCGCGUGGAUAUGGCACGCAAGUUUCUACCGGGCACCGUAAAUGUCCGACUGGAGCCGUUCGGGCGGCUAUAAACAGACCUCAGGCCCGAAGCGUGGCGGCACCUGCCGCCGGUGGUAAAAAAGAUCGGAAGAGCACACGUCU | 1.4
GGGUCGAGCUCGUAUAAUCGCGUGGAUAUGGCACGCAAGUUUCUACCGGGCACCGUAAAUGUCCGACUGGAGCCGUUCGGGCGGCUAUAAACAGACCUCAGGCCCGAAGCGUGGCGGCACCUGCCGCCGGUGGUAAAAAAGAUCGGAAGAGCACACGUCU | 1.37
GGGUCGAGCUCGGAUAAUCGCGUGGAUAUGGCACGCAAGUUUCUACCGGGCACCGUAAAUGUCCGACUGGAGCCGUUCGGGCGGCUAUAAACAGACCUCAGGCCCGAAGCGUGGCGGCACCUGCCGCCGGUGGUAAAAAAGAUCGGAAGAGCACACGUCU | 1.11
GGGUCGAGCUCGAAUAAUCGCGUGGAUAUGGCACGCAAGUUUCUACCGGGCACCGUAAAUGUCCGACUGGAGCCGUUCGGGCGGCUAUAAACAGACCUCAGGCCCGAAGCGUGGCGGCACCUGCCGCCGGUGGUAAAAAAGAUCGGAAGAGCACACGUCU | 1.19
GGGUCGAGCUAUCAUAAUCGCGUGGAUAUGGCACGCAAGUUUCUACCGGGCACCGUAAAUGUCCGACUGGAGCCGUUCGGGCGGCUAUAAACAGACCUCAGGCCCGAAGCGUGGCGGCACCUGCCGCCGGUGGUAAAAAAGAUCGGAAGAGCACACGUCU | 1.53
GGGUCGAGCUAGCAUAAUCGCGUGGAUAUGGCACGCAAGUUUCUACCGGGCACCGUAAAUGUCCGACUGGAGCCGUUCGGGCGGCUAUAAACAGACCUCAGGCCCGAAGCGUGGCGGCACCUGCCGCCGGUGGUAAAAAAGAUCGGAAGAGCACACGUCU | 1.34
GGGUCGAGCUCCAAUAAUCGCGUGGAUAUGGCACGCAAGUUUCUACCGGGCACCGUAAAUGUCCGACUGGAGCCGUUCGGGCGGCUAUAAACAGACCUCAGGCCCGAAGCGUGGCGGCACCUGCCGCCGGUGGUAAAAAAGAUCGGAAGAGCACACGUCU | 1.37
GGGUCGAGCUCCUAUAAUCGCGUGGAUAUGGCACGCAAGUUUCUACCGGGCACCGUAAAUGUCCGACUGGAGCCGUUCGGGCGGCUAUAAACAGACCUCAGGCCCGAAGCGUGGCGGCACCUGCCGCCGGUGGUAAAAAAGAUCGGAAGAGCACACGUCU | 1.44
GGGUCGAGCUCCGAUAAUCGCGUGGAUAUGGCACGCAAGUUUCUACCGGGCACCGUAAAUGUCCGACUGGAGCCGUUCGGGCGGCUAUAAACAGACCUCAGGCCCGAAGCGUGGCGGCACCUGCCGCCGGUGGUAAAAAAGAUCGGAAGAGCACACGUCU | 1.1
GGGUCGAGCUGGCAUAAUCGCGUGGAUAUGGCACGCAAGUUUCUACCGGGCACCGUAAAUGUCCGACUGGAGCCGUUCGGGCGGCUAUAAACAGACCUCAGGCCCGAAGCGUGGCGGCACCUGCCGCCGGUGGUAAAAAAGAUCGGAAGAGCACACGUCU | 1.66
GGGUCGAGCUGACAUAAUCGCGUGGAUAUGGCACGCAAGUUUCUACCGGGCACCGUAAAUGUCCGACUGGAGCCGUUCGGGCGGCUAUAAACAGACCUCAGGCCCGAAGCGUGGCGGCACCUGCCGCCGGUGGUAAAAAAGAUCGGAAGAGCACACGUCU | 1.67
GGGUCGAGCUCCCAUAAUCGCGUGGAUAUGGCACGCAAGUUUCUACCGGGCACCGUAAAUGUCCGACUGGAGCCGUUCGGGCGGCUAUAAACAGACCUCAGGCCCGAAGCGUGGCGGCACCUGCCGCCGGUGGUAAAAAAGAUCGGAAGAGCACACGUCU | 1.35
GGGUCGAGCUGCCAUAAUCGCGUGGAUAUGGCACGCAAGUUUCUACCGGGCACCGUAAAUGUCCGACUGGAGCCGUUCGGGCGGCUAUAAACAGACCUCAGGCCCGAAGCGUGGCGGCACCUGCCGCCGGUGGUAAAAAAGAUCGGAAGAGCACACGUCU | 1.57

Variant | aptazyme ON/OFF ratio
GGGUCGAGCUCAGAUAAUCGCGUGGAUAUGGCACGCAAGUUUCUACCGGGCACCGUAAAUGUCCGACUGGAGCCGUUCGGGCGGCUAUAAACAGACCUCAGGCCCGAAGCGUGGCGGCACCUGCCGCCGGUGGUAAAAAAGAUCGGAAGAGCACACGUCU | 1.18
GGGUCGAGCUCAUAUAAUCGCGUGGAUAUGGCACGCAAGUUUCUACCGGGCACCGUAAAUGUCCGACUGGAGCCGUUCGGGCGGCUAUAAACAGACCUCAGGCCCGAAGCGUGGCGGCACCUGCCGCCGGUGGUAAAAAAGAUCGGAAGAGCACACGUCU | 1.66
GGGUCGAGCUCAAAUAAUCGCGUGGAUAUGGCACGCAAGUUUCUACCGGGCACCGUAAAUGUCCGACUGGAGCCGUUCGGGCGGCUAUAAACAGACCUCAGGCCCGAAGCGUGGCGGCACCUGCCGCCGGUGGUAAAAAAGAUCGGAAGAGCACACGUCU | 1.17
GGGUCGAGCUAGAAUAAUCGCGUGGAUAUGGCACGCAAGUUUCUACCGGGCACCGUAAAUGUCCGACUGGAGCCGUUCGGGCGGCUAUAAACAGACCUCAGGCCCGAAGCGUGGCGGCACCUGCCGCCGGUGGUAAAAAAGAUCGGAAGAGCACACGUCU | 1.11
GGGUCGAGCUAGUAUAAUCGCGUGGAUAUGGCACGCAAGUUUCUACCGGGCACCGUAAAUGUCCGACUGGAGCCGUUCGGGCGGCUAUAAACAGACCUCAGGCCCGAAGCGUGGCGGCACCUGCCGCCGGUGGUAAAAAAGAUCGGAAGAGCACACGUCU | 1.28
GGGUCGAGCUAGGAUAAUCGCGUGGAUAUGGCACGCAAGUUUCUACCGGGCACCGUAAAUGUCCGACUGGAGCCGUUCGGGCGGCUAUAAACAGACCUCAGGCCCGAAGCGUGGCGGCACCUGCCGCCGGUGGUAAAAAAGAUCGGAAGAGCACACGUCU | 1.35
GGGUCGAGCUGGGAUAAUCGCGUGGAUAUGGCACGCAAGUUUCUACCGGGCACCGUAAAUGUCCGACUGGAGCCGUUCGGGCGGCUAUAAACAGACCUCAGGCCCGAAGCGUGGCGGCACCUGCCGCCGGUGGUAAAAAAGAUCGGAAGAGCACACGUCU | 1.18
GGGUCGAGCUGGAAUAAUCGCGUGGAUAUGGCACGCAAGUUUCUACCGGGCACCGUAAAUGUCCGACUGGAGCCGUUCGGGCGGCUAUAAACAGACCUCAGGCCCGAAGCGUGGCGGCACCUGCCGCCGGUGGUAAAAAAGAUCGGAAGAGCACACGUCU | 1.1
GGGUCGAGCUGGUAUAAUCGCGUGGAUAUGGCACGCAAGUUUCUACCGGGCACCGUAAAUGUCCGACUGGAGCCGUUCGGGCGGCUAUAAACAGACCUCAGGCCCGAAGCGUGGCGGCACCUGCCGCCGGUGGUAAAAAAGAUCGGAAGAGCACACGUCU | 1.22
GGGUCGAGCUCGCAUAAUCGCGUGGAUAUGGCACGCAAGUUUCUACCGGGCACCGUAAAUGUCCGACUGGAGCCGUUCGGGCGGCUAUAAACAGACCUCAGGCCCGAAGCGUGGCGGCACCUGCCGCCGGUGGUAAAAAAGAUCGGAAGAGCACACGUCU | 1.65
GGGUCGAGCUCUCAUAAUCGCGUGGAUAUGGCACGCAAGUUUCUACCGGGCACCGUAAAUGUCCGACUGGAGCCGUUCGGGCGGCUAUAAACAGACCUCAGGCCCGAAGCGUGGCGGCACCUGCCGCCGGUGGUAAAAAAGAUCGGAAGAGCACACGUCU | 1.49
GGGUCGAGCUCACAUAAUCGCGUGGAUAUGGCACGCAAGUUUCUACCGGGCACCGUAAAUGUCCGACUGGAGCCGUUCGGGCGGCUAUAAACAGACCUCAGGCCCGAAGCGUGGCGGCACCUGCCGCCGGUGGUAAAAAAGAUCGGAAGAGCACACGUCU | 2.15
GGGUCGAGCUACUAUAAUCGCGUGGAUAUGGCACGCAAGUUUCUACCGGGCACCGUAAAUGUCCGACUGGAGCCGUUCGGGCGGCUAUAAACAGACCUCAGGCCCGAAGCGUGGCGGCACCUGCCGCCGGUGGUAAAAAAGAUCGGAAGAGCACACGUCU | 1.36
GGGUCGAGCUACAAUAAUCGCGUGGAUAUGGCACGCAAGUUUCUACCGGGCACCGUAAAUGUCCGACUGGAGCCGUUCGGGCGGCUAUAAACAGACCUCAGGCCCGAAGCGUGGCGGCACCUGCCGCCGGUGGUAAAAAAGAUCGGAAGAGCACACGUCU | 1.44
GGGUCGAGCUACGAUAAUCGCGUGGAUAUGGCACGCAAGUUUCUACCGGGCACCGUAAAUGUCCGACUGGAGCCGUUCGGGCGGCUAUAAACAGACCUCAGGCCCGAAGCGUGGCGGCACCUGCCGCCGGUGGUAAAAAAGAUCGGAAGAGCACACGUCU | 1.15
GGGUCGAGCUGAGAUAAUCGCGUGGAUAUGGCACGCAAGUUUCUACCGGGCACCGUAAAUGUCCGACUGGAGCCGUUCGGGCGGCUAUAAACAGACCUCAGGCCCGAAGCGUGGCGGCACCUGCCGCCGGUGGUAAAAAAGAUCGGAAGAGCACACGUCU | 1.26
GGGUCGAGCUGAUAUAAUCGCGUGGAUAUGGCACGCAAGUUUCUACCGGGCACCGUAAAUGUCCGACUGGAGCCGUUCGGGCGGCUAUAAACAGACCUCAGGCCCGAAGCGUGGCGGCACCUGCCGCCGGUGGUAAAAAAGAUCGGAAGAGCACACGUCU | 1.28
GGGUCGAGCUGAAAUAAUCGCGUGGAUAUGGCACGCAAGUUUCUACCGGGCACCGUAAAUGUCCGACUGGAGCCGUUCGGGCGGCUAUAAACAGACCUCAGGCCCGAAGCGUGGCGGCACCUGCCGCCGGUGGUAAAAAAGAUCGGAAGAGCACACGUCU | 1.29
